Test results as given in patent US20050079151A1, “Therapeutic agents for apoptosis-related diseases” (priority 1998, published 2005).

Test system: renal uriniferous tubule cells
Assay: Inhibitory effect on cisplatin-induced apoptosis in renal uriniferous tubule cells of MK knockout mice
Format: in vivo, mouse
Description: Heterozygous 129/Sv knockout mice (male, 8- to 12-week old) in which parts of exons 2 and 3 of the MK gene were destroyed (Biochemistry 7, 1996, Volume 68, pp. 1239, 4-p-1244) were divided into two groups; the saline administration group and the MK administration groups (14 individuals each). As a control group, the untreated wild-type mice (four individuals) were prepared. Dosage of MK was 200 μg/kg and that of saline was 10 ml/kg.
MK or saline was intraperitoneally administered to the mice in two groups in the morning and cisplatin 9.3 mg/kg was intraperitoneally administered to the mice in two groups in the afternoon of the same day (this day is Day 0).
In the morning of Day 1, MK or saline was interperitoneally administered to each mouse in the same manner as on […].
On Day 2, four mice were selected from each group (the untreated wild-type mice group and the two treated groups) to collect urine and whole blood. Clots in the collected blood were retracted for 1 hour at 37° C., and centrifuged (4° C., 8000 rpm, 10 min) to separate the serum. […]
Blood urea nitrogen (BUN) and serum creatinine frequently used as indexes of renal dysfunction in day-to-day diagnosis were measured and proteins in urine were simply quantified. […]
On Day 4, DNA fragmentation in the kidney paraffin sections representating strong damage was analyzed by the TUNEL method (In situ Apoptosis Detection Kit; TaKaRa).

B1: MK: midkine, a heparin-binding growth and differentiation factor; human MK protein (SEQ ID NO: 3; or recombinant, secreted by yeast) (protein, UniProt P21741 21-143, looked up)
Midkine: VAKKKDKVKKGGPGSECAEWAWGPCTPSSKDCGVGFREGTCGAQTQRIRCRVPCNWKKEFGADCKYKFENWGACDGGTGTKVRQGTLKKARYNAQCQETIRVTKPCTPKTKAKAKAKKGKGKD
B1 was tested, and the “number of TUNEL positive cells in kidney paraffin sections” value (Day 4, MK 200 μg/kg i.p., cisplatin 9.3 mg/kg i.p., versus saline administrated group) was “significantly decreased” and the “renal dysfunction caused by cisplatin (BUN, serum creatinine, urine protein, HE sections)” value (MK 200 μg/kg i.p. daily, cisplatin 9.3 mg/kg i.p. on Day 0) was “effect of MK for relieving renal dysfunction caused by cisplatin was observed”.
